Experimental data as given in patent US20060115482A1, “Modifications of histone proteins as indicators of cell proliferation and differentiation” (The Regents of the University of California, priority 2004, published 2006).

Assays:
[1] = target: recombinant histone H2B (unphosphorylated) (Drosophila) (UniProt P02283); settings: scale: % of the activity determined for TFIID, TAF1 and CTK
[2] = target: native nucleosomes purified from 0-6 h Drosophila embryos (H2B in nucleosomes) (Drosophila) (UniProt P02283)
[3] = target: recombinant histone H2B (unphosphorylated) (Drosophila) (UniProt P02283)

Substance	kinase activity (radiolabeled H2B cut from the gel, scintillation counting) [1]	turnover value for phosphorylation of H2B-S33 (in vitro kinase assay, scintillation counting) [2] [s⁻¹]	turnover value for phosphorylation of H2B-S33 (in vitro kinase assay, scintillation counting) [3] [s⁻¹]
CTK(D1538A) (from UniProt P51123) (enzyme)	< 0.1		
CTKΔ1600 (CTK polypeptide lacking the S/T-kinase motif) (from UniProt P51123) (enzyme)	< 0.1		
CTKΔATP (CTK polypeptide lacking the ATP binding motifs) (from UniProt P51123) (enzyme)	< 0.1		
TAF1 COOH-terminal kinase domain (CTK; amino acids 1496-2132) (from UniProt P51123) (enzyme)		2.6	4.4
TFIID (endogenous Drosophila melanogaster TFIID, immunopurified) (from UniProt P51123) (enzyme)		3.3	2.6
recombinant TAF1 (Flag(M2)-epitope tagged, immunopurified) (from UniProt P51123) (enzyme)		2.5	2.5
